Biological target: T1, BMC02 (uncultured bacterium (metagenome))
T1 chain: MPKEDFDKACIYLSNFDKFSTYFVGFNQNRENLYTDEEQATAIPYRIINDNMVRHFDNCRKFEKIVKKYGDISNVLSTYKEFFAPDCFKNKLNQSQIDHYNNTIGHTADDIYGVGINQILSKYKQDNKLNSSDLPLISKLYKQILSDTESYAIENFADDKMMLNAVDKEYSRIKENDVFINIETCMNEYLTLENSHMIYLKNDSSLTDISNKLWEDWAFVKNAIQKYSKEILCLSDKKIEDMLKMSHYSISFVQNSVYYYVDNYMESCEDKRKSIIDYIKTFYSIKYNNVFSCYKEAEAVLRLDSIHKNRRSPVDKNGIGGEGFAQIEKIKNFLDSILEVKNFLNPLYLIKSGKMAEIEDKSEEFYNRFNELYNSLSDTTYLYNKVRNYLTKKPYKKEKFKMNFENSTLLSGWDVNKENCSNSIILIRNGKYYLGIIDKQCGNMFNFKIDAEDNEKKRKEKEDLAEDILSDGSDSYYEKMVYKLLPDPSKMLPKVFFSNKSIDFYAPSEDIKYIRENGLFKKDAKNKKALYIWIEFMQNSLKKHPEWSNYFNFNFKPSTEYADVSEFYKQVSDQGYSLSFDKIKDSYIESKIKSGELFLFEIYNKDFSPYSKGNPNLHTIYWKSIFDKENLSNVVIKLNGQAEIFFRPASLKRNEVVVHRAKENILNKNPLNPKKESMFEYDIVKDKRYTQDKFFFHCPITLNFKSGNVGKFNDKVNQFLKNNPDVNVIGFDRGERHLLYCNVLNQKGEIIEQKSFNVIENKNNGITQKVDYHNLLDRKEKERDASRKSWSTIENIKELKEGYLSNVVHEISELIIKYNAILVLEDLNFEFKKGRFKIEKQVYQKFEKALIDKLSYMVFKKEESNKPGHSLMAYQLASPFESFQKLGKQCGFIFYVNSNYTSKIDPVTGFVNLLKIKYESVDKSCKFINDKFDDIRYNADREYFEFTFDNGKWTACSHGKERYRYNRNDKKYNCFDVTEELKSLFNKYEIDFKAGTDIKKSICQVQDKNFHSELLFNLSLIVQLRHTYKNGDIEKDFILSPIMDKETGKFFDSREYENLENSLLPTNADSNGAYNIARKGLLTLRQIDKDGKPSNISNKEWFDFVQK
Experiment: cell_activity; PAM not stated; E. coli depletion, 30 C
Summary of the method: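 E. coli carrying arabinose-induced (0.2%) BMC nuclease, grown at 30° C., made electrocompetent and electroporated with 50-100 ng plasmid carrying gRNA against malQ. Transformants plated on selective M9-glucose agar with kanamycin/ampicillin (± nourseothricin), and growth scored after 48 h at 30° C.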

B1: malQ gRNA (BMC stem-loop + 24 nt spacer) ; malQ protospacer (ssRNA ; dsDNA)
RNA: GAUUUCUACUAUUGUAGAUGUGGCGGUACGUUGAUGCAUCGCG
DNA 1: GTGGCGGTACGTTGATGCATCGCG
DNA 2: CGCGATGCATCAACGTACCGCCAC
activity: > 99.9 % colony reduction
